# Tests used:
# [1] = target: golgin A3 (UniProt Q08378); assay: anti-FLAG co-IP, golgin A3 Western blot; details: reference: Cα L206R, vehicle; sites S114
# [2] = target: PKA regulatory subunit IIβ, FLAG-tagged (RIIβ-FLAG) (human) (UniProt P31323); assay: co-IP
# Sequence of UniProt P31323 (P31323 whole entry): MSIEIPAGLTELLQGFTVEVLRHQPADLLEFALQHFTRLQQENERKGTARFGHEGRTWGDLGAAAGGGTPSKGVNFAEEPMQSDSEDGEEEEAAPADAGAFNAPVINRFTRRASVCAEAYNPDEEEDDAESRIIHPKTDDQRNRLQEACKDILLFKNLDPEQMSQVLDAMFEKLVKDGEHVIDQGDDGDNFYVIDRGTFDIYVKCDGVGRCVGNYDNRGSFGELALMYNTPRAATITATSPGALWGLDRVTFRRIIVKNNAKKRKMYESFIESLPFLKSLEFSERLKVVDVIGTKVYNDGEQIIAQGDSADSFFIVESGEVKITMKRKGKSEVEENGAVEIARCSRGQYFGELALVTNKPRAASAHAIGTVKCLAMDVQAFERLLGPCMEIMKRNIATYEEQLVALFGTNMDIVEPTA
"other: densitometry, relative units [1]",densitometry of golgin A3 co-precipitated with RIIβ-FLAG (WB) [2],Substance
lost; reference 1.8 ± 0.2,,"RIIβ (PKA regulatory subunit IIβ) (from UniProt P31323) Cα L206R, 8-Br-cAMP"
,1.8,golgin A3 (from UniProt Q08378 1-1498) (natural protein)
